This is an account of results in paper PMC7005851.

For test [1], the target named is *H chain of ΔLd-3D8 IgG1 variants ΔLd-*HL and ΔLd-*H*L (hinge Cys11 and Cys14 to Ser). The experiment in a line: sandwich ELISA (Protein L capture, AP-conjugated anti-human IgG/Fc detection). The conditions noted are these: chain shown with the change; no heat; lysate of ΔLd-3D8 *H*L transfectants; empty vector est. 0.20; parent: est. 2.2; read off a plot. (In general: ELISA stands for enzyme-linked immunosorbent assay.)

Test [2] addresses *^#H chain of ΔLd-3D8 IgG*^#H*^#L (WT VH, all C-region Cys to Ser). The test can be described thus: sandwich ELISA (anti-human Cκ capture). The conditions noted are these: chain shown with the change; lysates of HEK293 transfectants; empty vector est. 0.15; parent: est. 1.7; read off a plot.
The target of test [3] is T1, *^#H chain of ΔLd-2C281 IgG*^#H*^#L (WT VH, all C-region Cys to Ser).
T1 chain: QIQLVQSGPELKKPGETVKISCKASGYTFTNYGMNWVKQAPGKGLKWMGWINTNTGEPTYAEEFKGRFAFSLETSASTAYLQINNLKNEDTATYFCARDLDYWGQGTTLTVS
The test can be described thus: sandwich ELISA (anti-human Cκ capture). The conditions noted are these: chain shown with the change; lysates of HEK293 transfectants; empty vector est. 0.15; parent: est. 1.4; read off a plot.

For test [4], the target named is T2, *^#H chain of ΔLd-6C407 IgG*^#H*^#L (WT VH, all C-region Cys to Ser).
T2 chain: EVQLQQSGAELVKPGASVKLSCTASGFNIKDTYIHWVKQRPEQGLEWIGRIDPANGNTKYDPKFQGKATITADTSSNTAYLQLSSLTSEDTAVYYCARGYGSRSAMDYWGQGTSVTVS
The test can be described thus: sandwich ELISA (anti-human Cκ capture). Conditions: chain shown with the change; lysates of HEK293 transfectants; empty vector est. 0.15; parent: est. 1.9; read off a plot.

B1: m2 (L) and m1 (H), ΔLd-HL H:Cys11Ser (hinge); H:Cys14Ser (hinge); L:Cys107Ser (Cκ) (protein)
chain: DIVMSQSPSSLAVSAGEKVTMSCKSSQSLFNSRTRKNYLAWYQQKPGQSPKLLIYWASTRESGVPDRFTGSGPGTDFTLTISSVQAEDLAVYYCKQSYYHMYTFGSGTKLEIK
For the molecule B1, the response (Abs at 405 nm) in test [1] stood at 2.3.

B2: m2 (L) and m1 (H), WT ΔLd-3D8 IgG *#H*#L: all C-region Cys of inter- and intrachain disulfide bonds to Ser (residue numbers not printed) (protein)
chain: B1 chain
On to B2, for which the response (Abs at 405 nm) in test [2] stood at 0.15.

B3: m4 (L) and m3 (H), WT ΔLd-2C281 IgG *#H*#L: all C-region Cys of inter- and intrachain disulfide bonds to Ser (residue numbers not printed) (protein)
chain: DVVMTQTPLSLPVSLGDQASISCRSSQSLVHSNGNTYFHWFLQKPGQSPKLLIYKVSNRFSGVPDRFSGSGSGTDFTLKISRVEAEDLGVYFCSQSTHVPYTFGGGTKLEIK
In the case of B3, the response (Abs at 405 nm) in test [3] is 0.15.

B4: m6 (L) and m5 (H), WT ΔLd-6C407 IgG *#H*#L: all C-region Cys of inter- and intrachain disulfide bonds to Ser (residue numbers not printed) (protein)
chain: DIVLTQSPASLAVSLGQRATISCRASKSVSTSGYSYMLWYQQKPGQPPKLLIYLASNLESGVPARFSGSGSGTDFTLNIHPVEEEDAATYYCQHSRELPWTFGGGTKLEIK
Turning to B4, in test [4], the response (Abs at 405 nm) is 0.15.
